Results: patent US20170210813A1 (Regeneron, published 2017)
Each block holds one binder with its values, some of them ahead of it.

Assays:
hPDGFRb.mmh [1] = molecular target: T1, hPDGFRb.mmh (human, UniProt P09619 33-531); test: blocking ELISA, biot-hPDGFRb.mmh to coated PDGF-BB
T1 construct: Soluble monomeric construct; also called soluble human PDGFR-beta.mmh
Procedure: The equilibrated PDGFR-beta/antibody solutions were added to ligand-coated plates, allowed to incubate for 1 hr, and washed. Levels of bound biot-hPDGFR-beta.mmh were detected using HRP conjugated streptavidin. Data were analyzed using Prism software and IC₅₀ values were calculated as the amount of antibody required to achieve 50% reduction of hPDGFR-beta-mmh bound to ligand. Maximum blocking values were also calculated and reflect the ability of the antibody to block relative to baseline. The absorbance measured at the constant amount of 250 pM biot-hPDGFR-beta-mmh on the dose curve is defined as 0% blocking and the absorbance with no added PDGFR-beta is defined as 100%. The absorbance of the wells containing the highest antibody concentration determined the maximum blocking percent.

hPDGFRb.mmh [2] = molecular target: T1, hPDGFRb.mmh; test: SPR, mAb captured, 37 C
Procedure: (§1) Antibodies, expressed as either mouse Fc (prefix H1M; H2M) or human Fc (prefix H4H), were captured on their respective anti-Fc sensor surfaces (Mab capture format). […] Kinetic association (kₐ) and dissociation (kd) rate constants were determined by processing and fitting the data to a 1:1 binding model using Scrubber 2.0 curve fitting software.

human PDGFRb.mFc = molecular target: T2, human PDGFRb.mFc (human); test: SPR, mAb captured, 25 C
T2 construct: Soluble dimeric construct with mouse Fc; also called hPDGFRb.mFc; soluble human PDGFR-beta.mFc
T2 chain: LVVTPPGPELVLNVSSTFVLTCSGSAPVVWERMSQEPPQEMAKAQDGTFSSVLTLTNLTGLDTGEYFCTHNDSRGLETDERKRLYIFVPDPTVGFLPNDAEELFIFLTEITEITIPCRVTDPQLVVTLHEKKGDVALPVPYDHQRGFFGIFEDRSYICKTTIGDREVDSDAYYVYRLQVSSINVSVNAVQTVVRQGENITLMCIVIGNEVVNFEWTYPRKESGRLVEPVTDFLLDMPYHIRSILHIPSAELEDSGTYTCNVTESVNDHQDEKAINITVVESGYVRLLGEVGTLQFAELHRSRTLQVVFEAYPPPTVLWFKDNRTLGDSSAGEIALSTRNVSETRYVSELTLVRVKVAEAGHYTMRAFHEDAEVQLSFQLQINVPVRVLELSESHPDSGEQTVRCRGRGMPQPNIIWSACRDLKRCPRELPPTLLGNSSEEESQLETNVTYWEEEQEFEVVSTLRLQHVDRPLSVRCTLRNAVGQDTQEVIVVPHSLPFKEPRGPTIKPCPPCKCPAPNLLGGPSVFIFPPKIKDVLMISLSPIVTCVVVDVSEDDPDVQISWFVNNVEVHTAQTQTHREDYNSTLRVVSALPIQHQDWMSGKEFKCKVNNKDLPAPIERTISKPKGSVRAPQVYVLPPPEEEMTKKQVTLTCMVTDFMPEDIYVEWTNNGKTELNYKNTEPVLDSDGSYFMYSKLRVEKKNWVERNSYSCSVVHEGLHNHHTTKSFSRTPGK
Procedure: as §1

[3] = molecular target: T3, Macaca fascicularis PDGFRb.mmh (Macaca fascicularis); test: SPR, mAb captured, 25 C
T3 construct: Soluble monomeric construct; also called mfPDGFRb.mmh
T3 chain: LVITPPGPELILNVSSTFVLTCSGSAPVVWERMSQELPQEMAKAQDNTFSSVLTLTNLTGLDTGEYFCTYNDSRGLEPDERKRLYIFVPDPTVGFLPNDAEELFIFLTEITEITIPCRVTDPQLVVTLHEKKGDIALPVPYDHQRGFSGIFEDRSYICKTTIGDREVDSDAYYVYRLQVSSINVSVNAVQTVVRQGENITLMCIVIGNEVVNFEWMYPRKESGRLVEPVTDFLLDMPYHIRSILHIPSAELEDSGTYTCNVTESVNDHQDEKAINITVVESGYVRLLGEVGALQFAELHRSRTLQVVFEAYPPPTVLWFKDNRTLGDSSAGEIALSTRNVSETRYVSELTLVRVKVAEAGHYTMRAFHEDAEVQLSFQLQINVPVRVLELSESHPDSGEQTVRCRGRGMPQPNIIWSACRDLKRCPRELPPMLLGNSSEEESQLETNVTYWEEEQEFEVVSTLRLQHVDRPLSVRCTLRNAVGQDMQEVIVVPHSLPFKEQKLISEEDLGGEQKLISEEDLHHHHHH
Procedure: as §1

hPDGFRb.mmh [4] = molecular target: T1, hPDGFRb.mmh; test: SPR, mAb captured, 25 C
Procedure: as §1

[5] = molecular target: full length human PDGFR-beta on HEK293 cells (human, UniProt P09619 33-1106); test: cell-based or functional assay
[6] = molecular target: T3, Macaca fascicularis PDGFRb.mmh; test: SPR, mAb captured, 37 C
Procedure: as §1

human PDGFRb.hFc [7] = molecular target: T4, human PDGFRb.hFc (human); test: SPR, mAb captured, 37 C
T4 construct: Soluble dimeric construct with human Fc; also called hPDGFRb.hFc
Procedure: as §1

human PDGFRb.hFc [8] = molecular target: T4, human PDGFRb.hFc; test: SPR, mAb captured, 25 C
Procedure: as §1

B3: H2M3363N (antibody, V domains shown)
VH: QVQVQESGPGLVKPSETLSLTCTVSGDSISSSSYYWGWIRQPPGKGLEWIGSIYYNGISSYNPSLKSRVTISVESSKNQFSLRLASVTAADTALYYCARHRAARRFSEAFDIWGQGTMVTVSS
VL: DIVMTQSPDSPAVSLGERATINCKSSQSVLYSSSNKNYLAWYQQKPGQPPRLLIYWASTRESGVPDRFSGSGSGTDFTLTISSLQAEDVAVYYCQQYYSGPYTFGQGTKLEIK
notes: mouse Fc (H2M prefix; isotype not spelled out)
% Maximum Blocking (hPDGFRb.mmh [1]): 77% | IC50 (hPDGFRb.mmh [1]): 4.1 nM | Kd (hPDGFRb.mmh [2]): 17.6 nM | koff (hPDGFRb.mmh [2]): 0.00503 s⁻¹ | kon (hPDGFRb.mmh [2]): 286000 M⁻¹ s⁻¹ | t1/2 (hPDGFRb.mmh [2]): 2 min | Kd (human PDGFRb.mFc): 0.0386 nM | koff (human PDGFRb.mFc): 4.03e-06 s⁻¹ | kon (human PDGFRb.mFc): 104000 M⁻¹ s⁻¹ | t1/2 (human PDGFRb.mFc): 47.8 h | Kd [3]: 1.4 nM | koff [3]: 6.85e-05 s⁻¹ | kon [3]: 50000 M⁻¹ s⁻¹ | t1/2 [3]: 169 min | Kd (hPDGFRb.mmh [4]): 46.8 nM | koff (hPDGFRb.mmh [4]): 0.00333 s⁻¹ | kon (hPDGFRb.mmh [4]): 71100 M⁻¹ s⁻¹ | t1/2 (hPDGFRb.mmh [4]): 3 min | IC50, blocking PDGF-BB (250 pM) activation, SRE-luciferase [5]: 7.5e-09 M | IC50, blocking PDGF-DD (400 pM) activation, SRE-luciferase [5]: 1.9e-10 M

B4: H4H3095S (antibody, human IgG4, V domains shown)
VH: EVQLVESGGGLVQPGGSLRLSCGASGFTFSSYWMTWVRQAPGKGLEWVGNINQDGSEKYSVDSVKGRFTISRDNAKNSLYLQMNRVRAEDTAVYYCSRDLVPPRQGDNYYYFGMDVWGLGTTVTVSS
VL: DIQMTQSPSTLSASVGDRVIITCRASQNINNWLAWYQQQPGKAPKLLIYEASSLESGVPSRFSGSGSGTEFTLTIGSLQPDDFATYYCQHYNSYSRTFGQGTKVDIK
notes: human IgG4 Fc (H4H prefix)
% Maximum Blocking (hPDGFRb.mmh [1]): 82% | IC50 (hPDGFRb.mmh [1]): 1.4 nM | Kd [6]: 33.3 nM | koff [6]: 0.00797 s⁻¹ | kon [6]: 239000 M⁻¹ s⁻¹ | t1/2 [6]: 1.5 min | Kd (hPDGFRb.mmh [2]): 13.8 nM | koff (hPDGFRb.mmh [2]): 0.00624 s⁻¹ | kon (hPDGFRb.mmh [2]): 452000 M⁻¹ s⁻¹ | t1/2 (hPDGFRb.mmh [2]): 2 min | Kd (human PDGFRb.hFc [7]): 1.67 nM | koff (human PDGFRb.hFc [7]): 0.00071 s⁻¹ | kon (human PDGFRb.hFc [7]): 425000 M⁻¹ s⁻¹ | t1/2 (human PDGFRb.hFc [7]): 16 min | Kd [3]: 8.5 nM | koff [3]: 0.00175 s⁻¹ | kon [3]: 207000 M⁻¹ s⁻¹ | t1/2 [3]: 7 min | Kd (hPDGFRb.mmh [4]): 4.78 nM | koff (hPDGFRb.mmh [4]): 0.00136 s⁻¹ | kon (hPDGFRb.mmh [4]): 285000 M⁻¹ s⁻¹ | t1/2 (hPDGFRb.mmh [4]): 8 min | Kd (human PDGFRb.hFc [8]): 0.72 nM | koff (human PDGFRb.hFc [8]): 0.000232 s⁻¹ | kon (human PDGFRb.hFc [8]): 321000 M⁻¹ s⁻¹ | t1/2 (human PDGFRb.hFc [8]): 50 min | IC50, blocking PDGF-BB (250 pM) activation, SRE-luciferase [5]: 6.1e-10 M | IC50, blocking PDGF-DD (400 pM) activation, SRE-luciferase [5]: 8.2e-10 M

These reach a lower IC50 (hPDGFRb.mmh [1]). Values come first.

% Maximum Blocking (hPDGFRb.mmh [1]): 82% | IC50 (hPDGFRb.mmh [1]): 0.09 nM | Kd (hPDGFRb.mmh [2]): 4.79 nM | koff (hPDGFRb.mmh [2]): 0.000551 s⁻¹ | kon (hPDGFRb.mmh [2]): 115000 M⁻¹ s⁻¹ | t1/2 (hPDGFRb.mmh [2]): 21 min | Kd (human PDGFRb.mFc): 0.34 nM | koff (human PDGFRb.mFc): 8.01e-05 s⁻¹ | kon (human PDGFRb.mFc): 236000 M⁻¹ s⁻¹ | t1/2 (human PDGFRb.mFc): 2.4 h | Kd [3]: 3.4 nM | koff [3]: 0.000206 s⁻¹ | kon [3]: 60000 M⁻¹ s⁻¹ | t1/2 [3]: 56 min | Kd (hPDGFRb.mmh [4]): 2.79 nM | koff (hPDGFRb.mmh [4]): 0.000127 s⁻¹ | kon (hPDGFRb.mmh [4]): 45400 M⁻¹ s⁻¹ | t1/2 (hPDGFRb.mmh [4]): 91 min | IC50, blocking PDGF-BB (250 pM) activation, SRE-luciferase [5]: 7.9e-09 M | IC50, blocking PDGF-DD (400 pM) activation, SRE-luciferase [5]: 1.1e-10 M
B1: H2M3365N (antibody, V domains shown)
VH: EVQLVESGGGLVQPGRSLRLSCAASGFTFDDFAMHWVRQVPGKGLEWVSGISWSSGTIGYVGSVKGRFTISRDNAKNSLYLQMNSLRAEDTAMYFCTKDKAAFHDAFDIWGQGTMVTVSS
VL: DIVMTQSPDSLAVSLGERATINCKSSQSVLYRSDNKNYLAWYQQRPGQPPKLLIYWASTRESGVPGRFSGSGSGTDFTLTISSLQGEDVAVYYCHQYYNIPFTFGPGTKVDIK
notes: as for B3

% Maximum Blocking (hPDGFRb.mmh [1]): 83% | IC50 (hPDGFRb.mmh [1]): 0.085 nM | Kd (hPDGFRb.mmh [2]): 0.88 nM | koff (hPDGFRb.mmh [2]): 0.000102 s⁻¹ | kon (hPDGFRb.mmh [2]): 116000 M⁻¹ s⁻¹ | t1/2 (hPDGFRb.mmh [2]): 113 min | Kd (human PDGFRb.mFc): ≤ 0.00617 nM | koff (human PDGFRb.mFc): ≤ 1e-06 s⁻¹ | kon (human PDGFRb.mFc): 162000 M⁻¹ s⁻¹ | t1/2 (human PDGFRb.mFc): 192 h | Kd [3]: 0.816 nM | koff [3]: 4.16e-05 s⁻¹ | kon [3]: 51000 M⁻¹ s⁻¹ | t1/2 [3]: 278 min | Kd (hPDGFRb.mmh [4]): 0.808 nM | koff (hPDGFRb.mmh [4]): 2.52e-05 s⁻¹ | kon (hPDGFRb.mmh [4]): 31200 M⁻¹ s⁻¹ | t1/2 (hPDGFRb.mmh [4]): 458 min | IC50, blocking PDGF-BB (250 pM) activation, SRE-luciferase [5]: 8.5e-09 M | IC50, blocking PDGF-DD (400 pM) activation, SRE-luciferase [5]: 1.9e-10 M
B2: H1M3305N (antibody, mouse IgG1, V domains shown)
VH: QLQLQESGPGLVKPSETLSLTCIVSGGSISSSSYYWGWIRQPPGKGLEWIGSLYYSGITFYNPSLKSRVTISVDTSKNQFSLTLTSVTAADTAVFYCARHRVMASSPFDHWGQGTLVTVSS
VL: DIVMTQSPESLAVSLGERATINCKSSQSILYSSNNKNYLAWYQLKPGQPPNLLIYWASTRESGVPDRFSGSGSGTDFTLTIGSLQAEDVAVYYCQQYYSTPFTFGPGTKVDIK
notes: human variable domains with mouse constant domains, mouse IgG1 Fc (H1M prefix)
